Source: publication doi:10.1101/630269

Molecular target: Dendritic cell-specific ICAM-3 grabbing non-integrin (DC-SIGN, CD209) (human) (UniProt Q9NNX6)
Test: virion-cell binding assay

Chain of UniProt Q9NNX6 (Q9NNX6 whole entry): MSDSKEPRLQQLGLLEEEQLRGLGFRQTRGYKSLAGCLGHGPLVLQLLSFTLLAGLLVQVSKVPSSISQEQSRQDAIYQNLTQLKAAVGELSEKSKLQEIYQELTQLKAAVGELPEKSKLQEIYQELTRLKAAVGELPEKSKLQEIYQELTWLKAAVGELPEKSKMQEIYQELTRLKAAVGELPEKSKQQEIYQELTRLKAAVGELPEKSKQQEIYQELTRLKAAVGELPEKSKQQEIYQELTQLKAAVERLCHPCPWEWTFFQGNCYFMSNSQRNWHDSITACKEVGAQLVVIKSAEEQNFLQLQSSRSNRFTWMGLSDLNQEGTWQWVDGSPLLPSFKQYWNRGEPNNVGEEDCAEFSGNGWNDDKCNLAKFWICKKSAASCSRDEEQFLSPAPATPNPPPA

“EBOV Makona glycoprotein GP-V82 (natural protein)” gave a fold binding relative to GP-A82 of 2 fold.
